Measured values taken from patent publication US20190211099A1, “METHODS AND COMPOSITIONS FOR TREATING CANCER WITH SIGLEC-9 ACTIVITY MODULATORS” (KING'S COLLEGE LONDON, priority 2016, published 2019).

Target: Siglec-9 expressed by primary monocytes, monocyte-derived macrophages and monocytic cell lines (THP-1, U937) (human) (UniProt Q9Y336)
Assay: cell-based or functional assay

Chain of Siglec-9 expressed by primary monocytes, monocyte-derived macrophages and monocytic cell lines (THP-1, U937) (human) (Q9Y336 19-463): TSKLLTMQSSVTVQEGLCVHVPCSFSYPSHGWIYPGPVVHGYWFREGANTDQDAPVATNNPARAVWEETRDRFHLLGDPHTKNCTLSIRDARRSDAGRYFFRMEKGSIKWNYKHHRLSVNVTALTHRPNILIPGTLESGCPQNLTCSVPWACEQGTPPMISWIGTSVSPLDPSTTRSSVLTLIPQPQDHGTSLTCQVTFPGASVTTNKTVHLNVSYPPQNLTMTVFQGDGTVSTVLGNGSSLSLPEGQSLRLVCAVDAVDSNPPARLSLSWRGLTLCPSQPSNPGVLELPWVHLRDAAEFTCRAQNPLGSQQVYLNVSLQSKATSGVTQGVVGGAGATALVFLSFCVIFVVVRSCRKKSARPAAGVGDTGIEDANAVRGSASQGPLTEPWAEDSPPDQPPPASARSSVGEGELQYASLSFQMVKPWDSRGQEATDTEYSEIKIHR

MUC1-ST (recombinant secreted MUC1 consisting of 16 tandem repeats carrying sialylated Core-1 glycans, Ig part removed by trypsin) (from UniProt P15941 129-448) (ligand)
IDO mRNA expression in macrophages (qRT-PCR): 10 to 25 fold
